Test results published in patent US20230212319A1, “NOVEL ANTIGEN BINDING DOMAINS AND SYNTHETIC ANTIGEN RECEPTORS INCORPORATING THE SAME” (University of Southern California, priority 2020, published 2023).

Key:
Format in all cases: cell-based
LNCaP cells = experiment: JNG assay, co-culture with LNCaP cells; conditions: for NFAT-GFP ASSAY: LNCaP with PSMA-USC76-chVH-G4S-ULBP2-S3: LNCaP in presence of SAR adaptor PSMA-USC76-chVH-G4S-ULBP2-S3; for redirection to LNCaP cells: LNCaP (PSMA+) cells in the presence of SAR adaptor CD8SP-PSMA-USC76-chVH-EZIP (SEQ ID NO: 23118)
Method in brief: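 Scoring uses % GFP+ reporter cells above the parental control, where +/-, +, 2+, 3+, 4+ and 5+ correspond to about 5, 10, 20, 30, 40 and 50%. Effectors were SAR-expressing Jurkat NFAT-GFP cells cocultured with targets (E:T ~1:2, ~4–18 h).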

RAJI cells = experiment: JNG assay, co-culture with RAJI cells; conditions: JNG cells expressing construct, co-culture with Raji
Method in brief: (§1)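 Read-out is NFAT-driven GFP measured by flow cytometry after ~4–18 h co-culture of SAR-expressing JNG cells with target cells (E:T about 1:2). SARs were introduced by lentiviral spinfection and selected with puromycin or blasticidin when possible; scores (+/- to 5+ ≈ 5–50% GFP+) are relative to parental JNG cells.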

L363 cells = experiment: JNG assay, co-culture with L363 cells; conditions: for GFP induction: L363 cells (BCMA+), only in the presence of SAR adaptor BCMA-FHVH-74-EZIP (SEQ ID NO: 23119)
Method in brief: as §1

Molecule	NFAT-GFP ASSAY: LNCaP with PSMA-USC76-chVH-G4S-ULBP2-S3 (LNCaP cells)	NFAT-GFP ASSAY: Raji (RAJI cells)	redirection to LNCaP cells (LNCaP cells)	GFP induction (L363 cells)	further results
22288 (protein) MALPVTALLLPLALLLHAARPACLFNQEVQIPLTESYCGPCPKNWICYKNNCYQFFDESKNWYESQASCMSQNASLLKVYSKEDQDLLKLVKSAHWMGLVHIPTNGSWQWEDGSILSPNLLTIIEMQKGDCALYASSFKGYIENCSTPNTYICMQRTVLEGQPKANPTVTLFPPSSEELQANKATLVCLISDFYPGAVTVAWKADGSPVKAGVETTKPSKQSNNKYAASSYLSLTPEQWKSHRSYSCQVTHEGSTVEKTVAPTECSPIKTDVITMDPKDNCSKDANDTLLLQLTNTSAYYMYLLLLLKSVVYFAIITCCLLRRTAFCCNGEKSRAKRSGSGATNFSLLKQAGDVEENPGPTSATMDWIWRILFLVGAATGAHSGPQVQLQESGGGLAQAGGSLRLSCAASGRTFSMGWFRQAPGKEREFVAAITYSGGSPYYASSVRGRFTISRDNAKNTVYLQMNSLKPEDTAVYYCAANPTYGSDWNAENWGQGTQVTVSSGSGGGGSGGGGSGGGGSFEDLFNQEVQIPLTESYCGPCPKNWICYKNNCYQFFDESKNWYESQASCMSQNASLLKVYSKEDQDLLKLVKSAHWMGLVHIPTNGSWQWEDGSILSPNLLTIIEMQKGDCALYASSFKGFIENCSTPNTYICMQRTVTRASTKGPSVFPLAPSSKSTSGGTAALGCLVKDYFPEPVTVSWNSGALTSGVHTFPAVLQSSGLYSLSSVVTVPSSSLGTQTYICNVNHKPSNTKVDKRVEPKSCEVKTDSTDHVKPKETENTKQPSKSCHKPKAIVHTEKVNMMSLTVLGLRMLFAKTVAVNFLLTAKLFFLRAKRSGSGVKQTLNFDLLKLAGDVESNPGPSRGHMTEYKPTVRLATRDDVPRAVRTLAAAFADYPATRHTVDPDRHIERVTELQELFLTRVGLDIGKVWVADDGAAVAVWTTPESVEAGAVFAEIGPRMAELSGSRLAAQQQMEGLLAPHRPKEPAWFLATVGVSPDHQGKGLGSAVVLPGVEAAERAGVPAFLETSAPRNLPFYERLGFTVTADVEVPEGPRTWCMTRKPGA	+ (refer to approximately 5%, 10%, 20%, 30%, 40% and 50% GFP positive cells)	3+ (refer to approximately 5%, 10%, 20%, 30%, 40% and 50% GFP positive cells)			
22287 (protein) MALPVTALLLPLALLLHAARPACEVQLLESGGGLIQPGGSLRLSCAASGFTFSSHAMTWVRQAPGKGLEWVSAISGSGDYTHYADSVKGRFTISRDNSKNTVYLQMNSLRAEDSAVYYCAKDEDGGSLLGHRGQGTLVTVSSGTGGGGSGGGGSGGGGSEFDIQMTQSPSSLSASVGDRVTITCKASDHINNWLAWYQQKPGQAPKLLIYGATTLETGVPSRFSGSGSGTDYTLTISSLQPEDFATYYCQQSWNTPWTFGQGTKLEIKRLEGQPKANPTVTLFPPSSEELQANKATLVCLISDFYPGAVTVAWKADGSPVKAGVETTKPSKQSNNKYAASSYLSLTPEQWKSHRSYSCQVTHEGSTVEKTVAPTECSGRADCGFTSESYQQGVLSATILYEILLGKATLYAVLVSALVLMAMVKRKDSRGRAKRSGSGATNFSLLKQAGDVEENPGPTSTMDWIWRILFLVGAATGAHSLFNQEVQIPLTESYCGPCPKNWICYKNNCYQFFDESKNWYESQASCMSQNASLLKVYSKEDQDLLKLVKSAHWMGLVHIPTNGSWQWEDGSILSPNLLTIIEMQKGDCALYASSFKGYIENCSTPNTYICMQRTVSGGGGSGGGGSGGGGDLFNQEVQIPLTESYCGPCPKNWICYKNNCYQFFDESKNWYESQASCMSQNASLLKVYSKEDQDLLKLVKSAHWMGLVHIPTNGSWQWEDGSILSPNLLTIIEMQKGDCALYASSFKGYIENCSTPNTYICMQRTVGSGGGGSGGGGSGGGGSFEQVQLQQPGAELVKPGASVKMSCKASGYAFSSYWINWMKQKPGQGLEWIGQIYPGDGDTNYNGKFKGRATLTADTSSSTAYMQLSSLTSEDSAVYFCARSITTVVGCAMDYWGQGTSVTVSSTRASTKGPSVFPLAPSSKSTSGGTAALGCLVKDYFPEPVTVSWNSGALTSGVHTFPAVLQSSGLYSLSSVVTVPSSSLGTQTYICNVNHKPSNTKVDKRVEPKSCIPEDTFFPSPESSCDVKLVEKSFETDTNLNFQNLSVIGFRILLLKVAGFNLLMTLRLWSSRAKRSGSGVKQTLNFDLLKLAGDVESNPGPSRGHMTEYKPTVRLATRDDVPRAVRTLAAAFADYPATRHTVDPDRHIERVTELQELFLTRVGLDIGKVWVADDGAAVAVWTTPESVEAGAVFAEIGPRMAELSGSRLAAQQQMEGLLAPHRPKEPAWFLATVGVSPDHQGKGLGSAVVLPGVEAAERAGVPAFLETSAPRNLPFYERLGFTVTADVEVPEGPRTWCMTRKPGA	+ (refer to approximately 5%, 10%, 20%, 30%, 40% and 50% GFP positive cells)	3+ (refer to approximately 5%, 10%, 20%, 30%, 40% and 50% GFP positive cells)			NFAT-GFP ASSAY: L363 (L363 cells; co-culture with L363): +/- (refer to approximately 5%, 10%, 20%, 30%, 40% and 50% GFP positive cells)
SEQ ID NO: 22293: bispecific CD19xCD20 SAR with RZIP leucine zipper domain on hu-mR005-1 vL and CD20-VHH-USC1-2HCD26 on the vH domain (protein) MALPVTALLLPLALLLHAARPACMDPDLEIRAAFLRQRNTALRTEVAELEQEVQRLENEVSQYETRYGPLGGGKGTGGGGSGGGGSGGGGSEFDIQMTQSPSSLSASVGDRVTITCKASDHINNWLAWYQQKPGQAPKLLIYGATTLETGVPSRFSGSGSGTDYTLTISSLQPEDFATYYCQQSWNTPWTFGQGTKLEIKRLEDLKNVFPPEVAVFEPSEAEISHTQKATLVCLATGFYPDHVELSWWVNGKEVHSGVCTDPQPLKEQPALNDSRYCLSSRLRVSATFWQNPRNHFRCQVQFYGLSENDEWTQDRAKPVTQIVSAEAWGRADCGFTSESYQQGVLSATILYEILLGKATLYAVLVSALVLMAMVKRKDSRGRAKRSGSGATNFSLLKQAGDVEENPGPTSATMDWIWRILFLVGAATGAHSGPEVQLVESGGGLVQAGGSLRLSCAASGRTFSMGWFRQAPGKEREFVAAITYSGGSPYYADSVKGRFTISRDNAKNTVYLQMNSLKPEDTAVYYCAANPTYGSDWNAENWGQGTQVTVSSGSGGGGSGGGGSGGGGSFEQVQLQQPGAELVKPGASVKMSCKASGYAFSSYWINWMKQKPGQGLEWIGQIYPGDGDTNYNGKFKGRATLTADTSSSTAYMQLSSLTSEDSAVYFCARSITTVVGCAMDYWGQGTSVTVSSTRIQNPDPAVYQLRDSKSSDKSVCLFTDFDSQTNVSQSKDSDVYITDKCVLDMRSMDFKSNSAVAWSNKSDFACANAFNNSIIPEDTFFPSPESSCDVKLVEKSFETDTNLNFQNLSVIGFRILLLKVAGFNLLMTLRLWSSRAKRSGSGVKQTLNFDLLKLAGDVESNPGPSRGHMTEYKPTVRLATRDDVPRAVRTLAAAFADYPATRHTVDPDRHIERVTELQELFLTRVGLDIGKVWVADDGAAVAVWTTPESVEAGAVFAEIGPRMAELSGSRLAAQQQMEGLLAPHRPKEPAWFLATVGVSPDHQGKGLGSAVVLPGVEAAERAGVPAFLETSAPRNLPFYERLGFTVTADVEVPEGPRTWCMTRKPGA			could be redirected	robust induction of GFP	
22293 (protein) MALPVTALLLPLALLLHAARPACMDPDLEIRAAFLRQRNTALRTEVAELEQEVQRLENEVSQYETRYGPLGGGKGTGGGGSGGGGSGGGGSEFDIQMTQSPSSLSASVGDRVTITCKASDHINNWLAWYQQKPGQAPKLLIYGATTLETGVPSRFSGSGSGTDYTLTISSLQPEDFATYYCQQSWNTPWTFGQGTKLEIKRLEDLKNVFPPEVAVFEPSEAEISHTQKATLVCLATGFYPDHVELSWWVNGKEVHSGVCTDPQPLKEQPALNDSRYCLSSRLRVSATFWQNPRNHFRCQVQFYGLSENDEWTQDRAKPVTQIVSAEAWGRADCGFTSESYQQGVLSATILYEILLGKATLYAVLVSALVLMAMVKRKDSRGRAKRSGSGATNFSLLKQAGDVEENPGPTSATMDWIWRILFLVGAATGAHSGPEVQLVESGGGLVQAGGSLRLSCAASGRTFSMGWFRQAPGKEREFVAAITYSGGSPYYADSVKGRFTISRDNAKNTVYLQMNSLKPEDTAVYYCAANPTYGSDWNAENWGQGTQVTVSSGSGGGGSGGGGSGGGGSFEQVQLQQPGAELVKPGASVKMSCKASGYAFSSYWINWMKQKPGQGLEWIGQIYPGDGDTNYNGKFKGRATLTADTSSSTAYMQLSSLTSEDSAVYFCARSITTVVGCAMDYWGQGTSVTVSSTRIQNPDPAVYQLRDSKSSDKSVCLFTDFDSQTNVSQSKDSDVYITDKCVLDMRSMDFKSNSAVAWSNKSDFACANAFNNSIIPEDTFFPSPESSCDVKLVEKSFETDTNLNFQNLSVIGFRILLLKVAGFNLLMTLRLWSSRAKRSGSGVKQTLNFDLLKLAGDVESNPGPSRGHMTEYKPTVRLATRDDVPRAVRTLAAAFADYPATRHTVDPDRHIERVTELQELFLTRVGLDIGKVWVADDGAAVAVWTTPESVEAGAVFAEIGPRMAELSGSRLAAQQQMEGLLAPHRPKEPAWFLATVGVSPDHQGKGLGSAVVLPGVEAAERAGVPAFLETSAPRNLPFYERLGFTVTADVEVPEGPRTWCMTRKPGA					NFAT-GFP ASSAY: LNCaP with PSMA-USC76-chVH-EZIP (LNCaP cells; LNCaP in presence of SAR adaptor PSMA-USC76-chVH-EZIP): +5.5; NFAT-GFP ASSAY: L363 with BCMA-FHVH-74-EZIP (L363 cells; L363 in presence of SAR adaptor BCMA-FHVH-74-EZIP): +3
SEQ ID NO: 22294: RZIP domain attached directly to truncated TCR chain [hTCRb-wt-opt2-6MD] with a short GS linker, without Ig or long linker (protein) MALPVTALLLPLALLLHAARPQLQLQESGPGLVKPSETLSLTCTVSGDSISSGDYYWGWIRQPPGKGLEWIGHIYYSGVTYYNPSLKSRVTISVDTSRNQFSLKLSSVTAADTAVYYCTREDSSNWRSRGQGTLVTVSSLEGSIPEDTFFPSPESSCDVKLVEKSFETDTNLNFQNLSVIGFRILLLKVAGFNLLMTLRLWSSRAKRSGSGVKQTLNFDLLKLAGDVESNPGPTSATMDWIWRILFLVGAATGAHSEFMDPDLEIRAAFLRQRNTALRTEVAELEQEVQRLENEVSQYETRYGPLGGGKTRGSGRADCGFTSESYQQGVLSATILYEILLGKATLYAVLVSALVLMAMVKRKDSRGRAKRSGSGATNFSLLKQAGDVEENPGPSRGHMTEYKPTVRLATRDDVPRAVRTLAAAFADYPATRHTVDPDRHIERVTELQELFLTRVGLDIGKVWVADDGAAVAVWTTPESVEAGAVFAEIGPRMAELSGSRLAAQQQMEGLLAPHRPKEPAWFLATVGVSPDHQGKGLGSAVVLPGVEAAERAGVPAFLETSAPRNLPFYERLGFTVTADVEVPEGPRTWCMTRKPGA			Weaker results	Weaker results	
